Measurements from the supplement of paper PMC7125110.
± gives the standard error. For part of these data: This sample holds only a part of the variants without activity.

B1: glmS ribozyme (parent)
chain: AUAAAAGCGCCAGAACUACAGAAAUGUAGUUGACGAGGAGGAGGUUUAUCGAAUUUUCGGCGGAUGCCUCCAAA

Key:
Details in all cases: with glucosamine-6-phosphate
[1] = variants of: B1; experiment: kcat; higher = faster cleavage; RNA array
How it was run: (§1)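 kcat and KM were obtained from weighted Michaelis–Menten fits across concentrations of kobs values. Those came from one- or two-exponential decay fits to per-tile medians normalised to baseline and to non-cleaving reference variants. The variants were barcoded ribozymes transcribed in situ by E. coli RNA polymerase on sequenced MiSeq chips and tracked through a hybridised Cy3 probe at 37 °C, with 40 μM to 10 mM glucosamine-6-phosphate in HEPES/KCl/Mg(OAc)2 buffer flowed in.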

[2] = variants of: B1; experiment: KM; higher = weaker cofactor use; RNA array
How it was run: as §1

[3] = variants of: B1; experiment: self-cleavage kobs at 160 uM GlcN6P; higher = faster cleavage; RNA array
How it was run: as §1

[4] = variants of: B1; experiment: self-cleavage kobs at 640 uM GlcN6P; higher = faster cleavage; RNA array
How it was run: as §1

[5] = variants of: B1; experiment: self-cleavage kobs at 2500 uM GlcN6P; higher = faster cleavage; RNA array
How it was run: as §1

[6] = variants of: B1; experiment: self-cleavage kobs at 10000 uM GlcN6P; higher = faster cleavage; RNA array
How it was run: as §1

[7] = variants of: B1; experiment: self-cleavage kobs at 40 uM GlcN6P; higher = faster cleavage; RNA array
How it was run: as §1

Variant	kcat [1] [s⁻¹]	KM [2] [µM]	self-cleavage kobs at 160 uM GlcN6P [3] [s⁻¹]	self-cleavage kobs at 640 uM GlcN6P [4] [s⁻¹]	self-cleavage kobs at 2500 uM GlcN6P [5] [s⁻¹]	self-cleavage kobs at 10000 uM GlcN6P [6] [s⁻¹]	self-cleavage kobs at 40 uM GlcN6P [7] [s⁻¹]
A15C C68U	0.00105 ± 0.00025	2390 ± 860	6.98e-05 ± 8.8e-06	0.000191 ± 2.7e-05	0.000847 ± 0.00011	0.000796 ± 8.8e-05	–
C11A C68U	5.04e-05 ± 2.5e-06	459 ± 170	–	3.2e-05 ± 1.4e-05	3.54e-05 ± 1.4e-05	4.9e-05 ± 6.3e-06	–
G13C U69C	7.75e-05 ± 1.1e-05	–	–	7.04e-05 ± 2.6e-05	5.9e-05 ± 1.8e-05	8.36e-05 ± 1.7e-05	–
G59U U69A	1.61e-05 ± 5.1e-06	–	–	–	–	–	–
A14C G40A	0.00106 ± 0.00042	–	8.2e-05 ± 1.6e-05	0.000371 ± 5.8e-05	0.000306 ± 8.2e-05	0.00112 ± 0.00011	3.61e-05 ± 8.7e-06
A42U U55A	0.000213 ± 6.1e-06	1260 ± 86	–	7.19e-05 ± 1.1e-05	0.000143 ± 2.6e-05	0.000188 ± 2.2e-05	–
A14U C50U C68A	3.75e-05 ± 1.4e-05	–	–	–	–	< 1e-05	–
G62U C70G	1.57e-05 ± 2.7e-06	–	–	–	–	–	–
A33G C50A	1.1e-05 ± 2.3e-06	–	–	–	–	–	–
A14G G41C	0.00141 ± 0.00048	–	4.38e-05 ± 1.7e-05	0.00022 ± 5.1e-05	0.000737 ± 0.00013	0.00105 ± 0.00013	4.74e-05 ± 9.7e-06
G29U U69G	5.24e-05 ± 1.4e-05	–	5.79e-05 ± 1.4e-05	7.49e-05 ± 1.7e-05	5.06e-05 ± 1.2e-05	–	–
C11U C34U G63U C70G	2.22e-05 ± 4.3e-06	–	–	–	–	–	–
G40A U46A	0.00064 ± 0.00019	–	–	0.000254 ± 5.4e-05	0.000422 ± 9.6e-05	0.000495 ± 9.6e-05	–
U46A A53U	0.00158 ± 0.00035	1520 ± 540	0.000161 ± 3.2e-05	0.000394 ± 5.6e-05	0.000952 ± 0.00012	0.00158 ± 0.00025	5.78e-05 ± 1.1e-05
C10U G60A	1.02e-05 ± 1.8e-06	–	–	–	–	–	< 1e-05
C16A U30C	2.39e-05 ± 3.2e-06	–	–	–	2.62e-05 ± 9e-06	2.12e-05 ± 8.1e-06	–
U30G U46A G66C	0.000292 ± 0.00014	–	–	6.55e-05 ± 2.5e-05	0.00038 ± 8.8e-05	0.000218 ± 5.4e-05	–
G29A U30C	3.24e-05 ± 8.4e-06	–	–	–	4.91e-05 ± 1.5e-05	2.58e-05 ± 1e-05	–
U57A G60U	< 1e-05	–	< 1e-05	< 1e-05	–	< 1e-05	< 1e-05
G7A U45A	3.18e-05 ± 3.1e-06	–	–	–	–	2.85e-05 ± 1.2e-05	–
